Measured values as given in the supplement of paper PMC9233669.
Fewer inactive variants are shown than the library holds.

Experiments:
[1] = tested on: biotinyl-Trp-oxazolone; assay: self-aminoacylation, catalytic enhancement (BWO) (fold over background); higher = more active; k-Seq, kA / k0A0; sequences stand for … in GGGAAUGGAUCCACAUCUACGAAUUC…UUCACUGCAGACUUGACGAAGCUG
Procedure, shortened: (§1)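 Mutagenized RNA pools with a 21-nt variable region (0.43 μM) were reacted with each biotinyl-aminoacyl-oxazolone at 2–1250 μM for 90 minutes at room temperature, in 50 μL HEPES/NaCl/KCl/MgCl2/CaCl2 buffer containing 5% acetonitrile at pH 6.9–7.0. RNA captured on streptavidin was quantified by triplicate qPCR and by Illumina sequencing. The fraction reacted for each sequence was fit to a pseudo-first-order model with bootstrapping, and catalytic enhancement is the median kA divided by the uncatalyzed rate, taken as the low-activity peak of a bimodal Gaussian fit.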

[2] = tested on: biotinyl-Leu-oxazolone; assay: self-aminoacylation, catalytic enhancement (BLO) (fold over background); higher = more active; k-Seq, kA / k0A0; sequences stand for … in GGGAAUGGAUCCACAUCUACGAAUUC…UUCACUGCAGACUUGACGAAGCUG
Procedure, shortened: as §1

[3] = tested on: biotinyl-Ile-oxazolone; assay: self-aminoacylation, catalytic enhancement (BIO) (fold over background); higher = more active; k-Seq, kA / k0A0; sequences stand for … in GGGAAUGGAUCCACAUCUACGAAUUC…UUCACUGCAGACUUGACGAAGCUG
Procedure, shortened: as §1

[4] = tested on: biotinyl-Met-oxazolone; assay: self-aminoacylation, catalytic enhancement (BMO) (fold over background); higher = more active; k-Seq, kA / k0A0; sequences stand for … in GGGAAUGGAUCCACAUCUACGAAUUC…UUCACUGCAGACUUGACGAAGCUG
Procedure, shortened: as §1

[5] = tested on: biotinyl-Phe-oxazolone; assay: self-aminoacylation, catalytic enhancement (BFO) (fold over background); higher = more active; k-Seq, kA / k0A0; sequences stand for … in GGGAAUGGAUCCACAUCUACGAAUUC…UUCACUGCAGACUUGACGAAGCUG
Procedure, shortened: as §1

[6] = tested on: biotinyl-Val-oxazolone; assay: self-aminoacylation, catalytic enhancement (BVO) (fold over background); higher = more active; k-Seq, kA / k0A0; sequences stand for … in GGGAAUGGAUCCACAUCUACGAAUUC…UUCACUGCAGACUUGACGAAGCUG
Procedure, shortened: as §1

Sequence	self-aminoacylation [1]	self-aminoacylation [2]	self-aminoacylation [3]	self-aminoacylation [4]	self-aminoacylation [5]	self-aminoacylation [6]
AUUCAUCUAGGUCAUCCGGUG [Fam2.2 aminoacylation ribozyme variant]	6.87	8.6	4.53	6.61	48.9	4.65
AUUCAUCUAGGUCAUCGCGUG [Fam2.2 aminoacylation ribozyme variant]	11.3	18.5	7.55	14.2	128	7.87
AUUCAUCUAGGUCAUCGGAUG [Fam2.2 aminoacylation ribozyme variant]	0.846	0.802	0.962	0.879	0.576	1.04
AUUCAUCUAGGUCAUCGGGAG [Fam2.2 aminoacylation ribozyme variant]	1.36	0.697	1.11	0.945	0.786	1.16
AUUCAUCUAGGUCAUCGGGCG [Fam2.2 aminoacylation ribozyme variant]	2.66	3.27	2.58	3.33	14.7	2.71
AUUCAUCUAGGUCAUCGGGUA [Fam2.2 aminoacylation ribozyme variant]	5.53	5.18	3.09	4.18	4.63	3.46
AUUCAUCUAGGUCAUCGGGUU [Fam2.2 aminoacylation ribozyme variant]	2.36	2.81	2.22	2.46	3.41	2.03
AUUCAUCUAGGUCAUCUGGUG [Fam2.2 aminoacylation ribozyme variant]	2.86	4.25	2.1	3.4	18.8	2.16
AUUCAUCUAGGUCAUGGGGUG [Fam2.2 aminoacylation ribozyme variant]	4.54	6.73	3.26	4.98	37	3.14
AUUCAUCUAGGUCCUCGGGUG [Fam2.2 aminoacylation ribozyme variant]	5.66	8.62	4	5.21	49.6	3.9
AUUCAUCUAGGUCUUCGGGUG [Fam2.2 aminoacylation ribozyme variant]	4.84	6.24	3.75	4.49	37.4	3.66
AUUCAUCUCGGUCAUCGGGUG [Fam2.2 aminoacylation ribozyme variant]	6.85	9.9	4.65	6.97	49.8	4.55
AUUCCCCGAGGUCAUCGGGUG [Fam2.2 aminoacylation ribozyme variant]	20.2	29.9	12.5	22.7	188	14
